Results from the domain aggregation screens of Martell et al. (2025).

experiment: soluble fraction after stress (log2 fold change); higher = more stays soluble; pooled small domains, quantitative proteomics; details: stress: 75 degC
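Further: 20 min heating vs room temperature control held 20 min.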

Compared with “HMDYENGTVKWFNTKKGYGFITRENGEDLFVHFRNIKGRGRRSLNDGEPVTFVVIEGDKGLQADQVSA”, “HMDYGSLQRAIENQLEVRNYQKPKKFLTKIIQLMETIMVRHGVMVVGLTGTGKTTVIETLSRSMEQ” is lower in “soluble fraction (log2)” value: -0.34 for the first, -0.591 for the second.

Compared with “HMDYIGIQAAKEAALKDADISSEQAVFTMAELDNKNNIFYYQIMFTENGTEYRYDIDALTGVIIEKNHFF”, “HMDYKLDVNFPEMYLEQIPAEKRAALIQILEQDPRPSYQKDPVRIYGMSYAGMEIHFRVDKETLYVTEVER” is higher in “soluble fraction (log2)” value: -2.4 for the first, -1.06 for the second.

Compared with “HMDYLSEFITDKVVRADGYSIRKGELSNEFKQWFITNVGTKNPKPKEIHDYMDRKFGKNKNGIWKNVKIKL”, “HMDYQEVEFEKLGKEILTKILLDINKKATKKTLKILIDGFNYDSYRSFYIAIGKAQISSDSILELLQH” is lower in “soluble fraction (log2)” value: -0.492 for the first, -0.994 for the second.

Going from “HMDYSWNFFIGFSVVDKVAGNLGTIEEIDDKTINTLFLVKNDDEDLIIPATEDFVEKIDAKKRILYLNLPE” to “HMDYYASVDQVWRELGLAGPARRALIDDGLFKLSDLRKTSLAAVKELHGMGPNAIRILTTEMKKADLSFR”, the “soluble fraction (log2)” value rises from -2.51 to -2.15.

“HMDYYDTLGVPRNASQSDIKKAYKKQSMQHHPDRTGGDDTKFKDVNEAYQVLSNSEKKQMYDQFGTA” and “HMDYYNILGVNKAATAQDIKRAYRKLAKEHHPDHGGDATRLQQVNEAYDTLKDPQRREQYDS” are within 0.2 log units of each other in “soluble fraction (log2)” value: 0.07 for the first, 0.215 for the second.

“HMEAADAGTLAQRAAQYFNEKNYAAALDALERRAAMAPETTELRMMRGWSLLHLNRKDEARNAFATLG” and “HMEAAIRNALSRVENPDETQRARIYRTAHDALIRNLENRGITDPEQVRPQVSRLKDLISVIEREYHG” are within 0.2 log units of each other in “soluble fraction (log2)” value: -0.101 for the first, -0.131 for the second.

Compared with “HMEAALTLRVDKAGSLRSLLSDEQYAKTSKIIVSGEINTLDIKTLQEMSGEKGSLQSIDLSQANIVAY”, “HMEAFELTPREKQVLQLLVQGKAYKIIAADLDITYDTVRAHIKKIYEKLHVGSMTEAVAKAIQHKL” is lower in “soluble fraction (log2)” value: 0.0407 for the first, -2.08 for the second.

Compared with “HMEAKKVIAVHIIGEINKPGIVELEEGARVIDAIKKAGGTTEKADLAQINLAYILKDGQKIYIPNTEDN”, “HMEALASESVKDKIRKIIDSEDPSRPMSDQRIKEMLKAANIDIARRTVTKYREAMNILSSTKRRQV” is lower in “soluble fraction (log2)” value: 0.254 for the first, -0.432 for the second.

“HMEALDPLTAREQEVLEMILSGKSNREIAAELHITENTVKTHAQSIYSKYDVRGRAKLISLLLKGEA” and “HMEALQKVSINYYDEGAGKQIAEVPLEVGAGDTEIALAVINKYMPAEYNLVSTDYQIRGGYVYVSVTPA” are within 0.2 log units of each other in “soluble fraction (log2)” value: -0.406 for the first, -0.49 for the second.

Going from “HMEAPPHEALSNREFQVLQLLSQGRSVTQIAHQLTLSANTISTYRARIFDKLGLHNPADLYAYAARHGLM” to “HMEAPWQEIKRQVMDGLDMSREFTDEELRERIALAVRSYSKEKLLSLKVRESYEEQIFNSFR”, the “soluble fraction (log2)” value rises from -2.41 to -1.05.

Compared with “HMEAQFIDINDVRIGTYVYVDLGWIKHPFALNSFKITSRDQIDTLIKLGVKRIRWSPEKSDS”, “HMEARNDWAQQSRADAEFGGEKLDENLAVAKKAVEALASPELKTLLEQSGLGNHPEIIRLFYRAGRSLS” is higher in “soluble fraction (log2)” value: -3.18 for the first, 0.0741 for the second.

Compared with “HMEATILTATPEAAGQRLDAFLAETLPELTRSAAQRLIAEGQVAVDGKIPTKSLKLAGGETVSVRLPEPE”, “HMEAVIGGIYRHYKGNNYKLLAVATHSETLEKMAVYQALYGEMGIWVRPLAMFMETIEKDGQSLKRFE” is lower in “soluble fraction (log2)” value: 0.734 for the first, -2.67 for the second.

Going from “HMEDAWMKKELWDAIATLPKKQRLVMTMRLTNNHSYKEIAAILGISENSAKVSYHHAVERLKEKFK” to “HMEDDPIYEQVMIFLLDKQITSAPELERRFKITHQRAIELLAQMEKTGIVSTMGHAGKRDVLT”, the “soluble fraction (log2)” value rises from -2.23 to -1.85.

First: HMEDEFNQIASQKNVPSFLGKGKKEVINIAKKNKIKINLSGNGYVKRQIPAPGEVISHLDEVTIFLEPG
Second: HMEDEVYFVPSPASRFNPWIAALASRRVPYRVEYDGAERRIAVPAGYAEKAGEELAAYERINHAWPR
The “soluble fraction (log2)” value of the first is higher: -0.0115 for the first, -0.371 for the second.

First: HMEDFDLSDTERKIIAQIGHGYSNKEIAQKLGFSEGTIRNYLSVILDKLDLRDRTQLAIWYLSR
Second: HMEDIAAIAQRIQGLRDIVGISVEEMAKALDISEQEYREYEKGETDFSFSFLYTVANVLGINITDLI
The “soluble fraction (log2)” value of the first is higher: -0.592 for the first, -1.29 for the second.

First: HMEDIEEVIVEIDTVLRTHFDRGRTEVLFAEIETAGGRPFMTYLALLFMAHRGSVRLQQDDLFGDLWVKDP
Second: HMEDISLYKILRAHSIDNLKLSQWIIDSLKTKFSTIGELQDAKIDDIRMYRIQDVRIEKIKNAVTEYMA
The “soluble fraction (log2)” value of the first is higher: 0.198 for the first, -1.08 for the second.

Going from “HMEDISQHAVKKLVQEMVMAEDPRDPLSDQQIAENLSRLGLKVARRTVAKYRAMLGIQPSNRRRK” to “HMEDIVDLVVEPEAAGRRLDAWLASRIERLSRSRIKALIESGHVAIGGATIVEAKKPVNSGDVVQLSVPEG”, the “soluble fraction (log2)” value rises from -1.21 to -0.263.

“HMEDKQRRMGELVALLNRAAYAYYTKDEPIMADVQYDRLYDELLSLEKETGVQMADSPTHRV” and “HMEDLMEERKEHLLSVMKDPAYVPMKQKELAMLLNVPKGLREELNQVLDALVAEGSVVMSKRGKYTIPQ” are within 0.2 log units of each other in “soluble fraction (log2)” value: 0.0301 for the first, -0.0948 for the second.

“HMEDNLVTYPNPTSDYIYVSKKVDLTVVNMLGDILIQKQNINVLDVTELTPGMYTIVIRYNNVTTNKRIIK” and “HMEDPFATLGVHREASLDEIKRAYRRLAMFWHPDRNPEAVAGTEFKRVHAAYELLLDPQRLAEWQQAQAT” are within 0.2 log units of each other in “soluble fraction (log2)” value: -0.017 for the first, -0.19 for the second.

First: HMEDPLAAQWKQGRKLFHDDYGYGIISKAFTAGDELVIMVQFENGGEKRFLPKYQAHNLLLVEQ
Second: HMEDQVITQFNMRLIRAVMPQGAPMIVVYEDPKDYPGLFVARLFDGRKSTHLIALADTLEDI
The “soluble fraction (log2)” value of the first is lower: -1.33 for the first, -0.31 for the second.

Compared with “HMEDVDTAALEKVIATAKGLNKNDYTATTWTTMQAALTNAEKALEAKKSQTSVDEAAKTLQAAIDGLKKAS”, “HMEDVPYMIKLPSHHYLTKMVDGSTGWSLVQNSNTVVGSSKEELLKQYPEYEDFIVQEPLNV” is lower in “soluble fraction (log2)” value: 0.336 for the first, -0.0186 for the second.

Compared with “HMEDVSTLAVKQRIDDLVKQENPAKPLSDSDIVARLKTDGIYIARRTVAKYRMELNIPSSSARKRAQQFS”, “HMEDWTPERFVGAFVSGGPALRDEILLAATKDLSHAQATRLLKLAEARGLVHRSQPGPSERVRFVVARK” is higher in “soluble fraction (log2)” value: -2.31 for the first, -0.518 for the second.

Compared with “HMEDYTPLQELGLKARYIELLEKGGIFSVEDLVQKSVDDLKDIDGIGEKTAKEIWEIVDSMVDF”, “HMEDYYKEDYYTEVLKIPKEYIKGFQYYLIEDAEFVNALNAKNKTMTSFLAKKLASDYIEIIHQEQ” is lower in “soluble fraction (log2)” value: 0.0226 for the first, -2.2 for the second.

First: HMEEDDGVDFHERLTELNDEQVYYLINTEPAKVIALALDQLGQKRKINIMNRFNPDMKHSIIMELGKL
Second: HMEEDGAPLESREVLLDQAISQGKGTQWTIATETKLEDHIVSGAYSTDGKVTLAVFSPLGDGKYEFSSSVN
The “soluble fraction (log2)” value of the first is lower: -0.543 for the first, 0.181 for the second.

Compared with “HMEEDPIIIAQRFLNIFRQLHIFSEEKKESFNKMLLEQPAEIRGALRSLPGGGLLQDYIDDLESKA”, “HMEEEEITIHIIGEVKYPGIVILKTGQRIIDAIDAAGGETEEADLNKINLAQLLSDGDKIYVPSINDN” is higher in “soluble fraction (log2)” value: -0.698 for the first, 0.158 for the second.

Going from “HMEEFAGYINGQPYYGPTHQHRGVKMVGAEHTQRPHPLVWDSVAKSLDNYDNRFQWVNGNLLQVV” to “HMEEFGRRLKERMIDKNMTEAELAQKTELWSSILTSYLKGERFPGYYTLLRIAEALDVSIDFLLGLRDEPE”, the “soluble fraction (log2)” value falls from -0.0201 to -2.72.

Compared with “HMEEILLSVKADGTYWVDQKEVTLDEVGALLDKEPDRLLNIFMDEKVPVRHFINVVDIAKVKREGRFII”, “HMEEIQLILAKNLKSIREKEKLSLEKVSQLTGVSKTMIGQIERGDSSPTLTTIWKIANGLKVSFTSLINNP” is lower in “soluble fraction (log2)” value: -0.27 for the first, -3.06 for the second.

First: HMEEKKYEVGDVVSFNYLYKNSFAEGKVSSLIHSGTITRIIDGRPAPYLINRGTGWLSNDLILT
Second: HMEEKNNIIVSYIEDKISELEKASMYVPNENKEKLIMAFKNRNEDIDVIKTRIDTIFNNSVAAYKENME
The “soluble fraction (log2)” value of the first is lower: -1.21 for the first, 0.557 for the second.

Going from “HMEEKTMNLPPSAKLVYKILSYEGNLTQKEIINMTYLPERTVRHALELLLGKRLITRQAYLNDARQSVYG” to “HMEEKVEVPNLSGKTYQQAKALLESYGLVAAKGGEEESEEPVGKVSRWSSAGKSVKKGTTITVWISGGI”, the “soluble fraction (log2)” value rises from -1.72 to -0.298.

Compared with “HMEEKWKENYEKIKLFISINNRYPSVYSEDKEEGLIGSFMSNQKRRKNKLSKEKMALFEALPNWIWE”, “HMEELNFYPNPAYKYINLDYVGLKEIYTVLGKKLLETYDTRINISNLNSGIYLIKFKNQALRFVK” is higher in “soluble fraction (log2)” value: -2.53 for the first, 0.0302 for the second.

“HMEELVGFEEKVRSILTSPLSAKEIKEKTHIEIDTRKLSKMLSELSFIKTEKKNGKKIFRLVS” and “HMEEMADILKTRIDTLDLSTRTLNALTGANIRTVGGIARKKKEDLLELAGMGEKGIQEIKKVLGGFGITL” are within 0.2 log units of each other in “soluble fraction (log2)” value: -0.243 for the first, -0.157 for the second.

Going from “HMEEPEYELLRQAVLALPEKYRLPIHLYYYEEYSVREIAEILQRKESAVQTQLQRGREKIRRSLTEKGVS” to “HMEEPLIISIDSNGAVYLEVDSFKDQSIEMSSLREIIEKIILANPDIQVVVRGDSEVKYEKVMDLMSILQS”, the “soluble fraction (log2)” value falls from -0.874 to -1.58.

“HMEEQGLPLVIISDGKVLAQNLTLRSLDRAWLQDQLTQHGHSKPEQVFLLTVDERGAVYYVPKE” and “HMEEQQIQLIQMKMEKDHKYVGKKISELRIKNMLIVLIKRGDEDIIPRAEVKIKEGDILVLSAQSYEG” are within 0.2 log units of each other in “soluble fraction (log2)” value: -0.556 for the first, -0.424 for the second.

“HMEETAFEKLSPLQKLRALGKPLTMINMRDGSQIAGSVQRSDDKFLYLDTGDGIAKLPVEEILRRTPM” and “HMEETIVFGQQKAINALSSDAGLSSNELDSYLKKRYKRPLYQLSKSEGAELIQGFQDGSLSKASIMDYVS” are within 0.2 log units of each other in “soluble fraction (log2)” value: 0.149 for the first, 0.19 for the second.

For “HMEEVIEVEGKITAVLPSTMFRAELENGHQVLAHISGKLRKHFIKITVGDIVKMEMSTQDLQKARIV”, the “soluble fraction (log2)” value was -0.411.
